Measured values published in patent US20180044422A1, “TREATING SOLID TUMOR BY TARGETING DECTIN-1 SIGNALING” (New York University, priority 2016, published 2018).

Key:
[1] = target: recombinant mouse Galectin-9 (R&D Systems) (mouse) (UniProt O08573); test: Control in the bead flow cytometry assay: Dectin-1 IgG Fc beads + rGal-9, stained with the fluorescent isotype antibody instead of αGal-9 (row + + - + -) [cont.) F]
[2] = target: 60S ribosomal protein L18 (mouse) (UniProt P35980); test: Dectin-1 Fc affinity purification from KPC cell lysate, mass spectrometry
[3] = target: Dolichyl-diphosphooligosaccharide-protein glycosyltransferase subunit 1 (mouse) (UniProt Q91YQ5); test: as above
[4] = target: Probable ATP-dependent RNA helicase DDX17 (mouse) (UniProt Q501J6); test: as above
[5] = target: Isoform 2 of Microtubule-associated protein 4 (mouse) (UniProt P27546); test: as above
Endoplasmin (mouse) = Endoplasmin (mouse) (UniProt P08113); test: as above
Clusterin (mouse) = Clusterin (mouse) (UniProt Q06890); test: as above
[6] = target: Polyadenylate-binding protein 1 (mouse) (UniProt P29341); test: as above
[7] = target: Elongation factor 1-alpha 1 (mouse) (UniProt P10126); test: as above
[8] = target: Elongation factor 1-gamma (mouse) (UniProt Q9D8N0); test: as above
[9] = target: Sodium/potassium-transporting ATPase subunit alpha-1 (mouse) (UniProt Q8VDN2); test: as above
Peroxiredoxin-1 (mouse) = Peroxiredoxin-1 (mouse) (UniProt P35700); test: as above
[10] = target: Cytochrome b-c1 complex subunit 2, mitochondrial (mouse) (UniProt Q9DB77); test: as above
Eef2 protein (mouse) = Eef2 protein (mouse) (UniProt P58252); test: as above
Prohibitin (mouse) = Prohibitin (mouse) (UniProt P67778); test: as above
[11] = target: Putative uncharacterized protein (Sqrdl) (mouse) (UniProt Q9R112); test: as above
Sequence of Putative uncharacterized protein (Sqrdl) (mouse) (Q9R112 whole entry): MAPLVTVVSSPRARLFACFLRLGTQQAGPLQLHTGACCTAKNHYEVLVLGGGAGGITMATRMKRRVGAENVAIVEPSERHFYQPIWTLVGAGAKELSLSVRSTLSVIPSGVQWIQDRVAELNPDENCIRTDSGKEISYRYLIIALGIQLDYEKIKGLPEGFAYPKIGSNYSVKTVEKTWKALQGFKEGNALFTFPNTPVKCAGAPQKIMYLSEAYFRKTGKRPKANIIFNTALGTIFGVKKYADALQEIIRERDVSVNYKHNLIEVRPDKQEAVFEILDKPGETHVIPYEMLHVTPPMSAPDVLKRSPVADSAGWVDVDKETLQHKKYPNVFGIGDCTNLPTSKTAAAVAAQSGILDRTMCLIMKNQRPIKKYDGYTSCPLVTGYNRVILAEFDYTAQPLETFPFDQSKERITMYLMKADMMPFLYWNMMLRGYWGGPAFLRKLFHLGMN

Sequence of human IgG Fc-conjugated Dectin-1 fusion protein (murine Dectin-1 IgG Fc; fc-mdec1a, InvivoGen) (Q6QLQ4 69-244 limits assumed): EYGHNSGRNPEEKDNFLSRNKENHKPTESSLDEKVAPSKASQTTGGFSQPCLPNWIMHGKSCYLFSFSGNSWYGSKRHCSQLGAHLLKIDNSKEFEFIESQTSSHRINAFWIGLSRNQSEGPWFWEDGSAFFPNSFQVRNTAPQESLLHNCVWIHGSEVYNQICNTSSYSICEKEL
Sequence of Endoplasmin (mouse) (P08113 22-802 limits assumed): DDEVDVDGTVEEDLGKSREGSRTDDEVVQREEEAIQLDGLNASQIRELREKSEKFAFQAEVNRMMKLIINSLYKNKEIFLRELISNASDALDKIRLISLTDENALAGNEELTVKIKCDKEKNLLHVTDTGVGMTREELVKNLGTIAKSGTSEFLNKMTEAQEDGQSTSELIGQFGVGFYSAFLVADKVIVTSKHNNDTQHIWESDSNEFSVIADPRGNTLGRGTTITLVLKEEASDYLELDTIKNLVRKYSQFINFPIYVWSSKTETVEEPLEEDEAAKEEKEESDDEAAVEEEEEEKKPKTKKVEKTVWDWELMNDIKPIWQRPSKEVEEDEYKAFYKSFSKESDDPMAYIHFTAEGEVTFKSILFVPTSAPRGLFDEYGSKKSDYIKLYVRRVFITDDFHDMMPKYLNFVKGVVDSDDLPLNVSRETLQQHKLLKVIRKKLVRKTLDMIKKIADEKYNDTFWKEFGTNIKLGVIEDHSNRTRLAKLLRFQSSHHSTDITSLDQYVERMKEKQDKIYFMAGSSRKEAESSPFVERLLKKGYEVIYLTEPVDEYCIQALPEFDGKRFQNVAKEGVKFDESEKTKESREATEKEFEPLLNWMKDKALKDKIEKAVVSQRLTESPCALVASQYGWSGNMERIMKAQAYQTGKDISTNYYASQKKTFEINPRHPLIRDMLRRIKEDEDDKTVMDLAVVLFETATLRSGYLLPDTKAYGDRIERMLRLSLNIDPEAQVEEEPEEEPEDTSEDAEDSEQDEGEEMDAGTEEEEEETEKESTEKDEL
Sequence of Cytochrome b-c1 complex subunit 2, mitochondrial (mouse) (Q9DB77 15-453 limits assumed, one chain of several): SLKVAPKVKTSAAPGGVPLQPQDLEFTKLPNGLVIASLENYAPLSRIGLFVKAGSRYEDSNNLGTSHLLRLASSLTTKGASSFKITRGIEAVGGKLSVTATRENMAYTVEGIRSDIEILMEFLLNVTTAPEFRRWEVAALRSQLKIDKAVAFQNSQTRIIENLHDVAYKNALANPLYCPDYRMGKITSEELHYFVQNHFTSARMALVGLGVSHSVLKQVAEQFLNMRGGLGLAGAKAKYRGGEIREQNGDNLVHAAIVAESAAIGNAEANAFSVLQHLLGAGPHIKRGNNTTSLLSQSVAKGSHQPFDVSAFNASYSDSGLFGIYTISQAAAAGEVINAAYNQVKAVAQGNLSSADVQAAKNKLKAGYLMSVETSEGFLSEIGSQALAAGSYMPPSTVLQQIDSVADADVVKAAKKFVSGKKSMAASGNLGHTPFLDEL
Sequence of Polyadenylate-binding protein 1 (mouse) (P29341 whole entry): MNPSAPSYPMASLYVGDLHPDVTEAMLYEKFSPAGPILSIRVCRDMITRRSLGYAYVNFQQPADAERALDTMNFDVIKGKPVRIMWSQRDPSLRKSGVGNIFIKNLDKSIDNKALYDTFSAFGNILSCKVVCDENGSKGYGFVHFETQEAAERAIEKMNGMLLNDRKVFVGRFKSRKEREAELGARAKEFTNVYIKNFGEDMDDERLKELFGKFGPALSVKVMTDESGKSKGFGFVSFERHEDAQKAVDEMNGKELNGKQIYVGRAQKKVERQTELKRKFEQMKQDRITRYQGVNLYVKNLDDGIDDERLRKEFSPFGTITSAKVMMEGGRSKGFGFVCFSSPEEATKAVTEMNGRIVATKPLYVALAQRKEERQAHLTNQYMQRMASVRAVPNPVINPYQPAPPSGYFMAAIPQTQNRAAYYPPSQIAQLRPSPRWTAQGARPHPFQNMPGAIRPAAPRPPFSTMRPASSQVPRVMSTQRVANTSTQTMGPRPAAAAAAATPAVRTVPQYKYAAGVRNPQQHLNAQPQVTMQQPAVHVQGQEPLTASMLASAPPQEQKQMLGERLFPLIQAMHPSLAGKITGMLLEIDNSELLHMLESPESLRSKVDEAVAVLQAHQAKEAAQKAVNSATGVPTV
Sequence of Peroxiredoxin-1 (mouse) (P35700 2-199 limits assumed): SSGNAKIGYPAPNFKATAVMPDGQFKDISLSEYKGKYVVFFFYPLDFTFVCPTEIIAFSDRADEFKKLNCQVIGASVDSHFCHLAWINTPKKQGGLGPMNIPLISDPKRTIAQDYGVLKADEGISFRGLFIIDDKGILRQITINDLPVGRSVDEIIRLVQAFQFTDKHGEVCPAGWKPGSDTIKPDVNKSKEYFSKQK
Sequence of Dolichyl-diphosphooligosaccharide-protein glycosyltransferase subunit 1 (mouse) (Q91YQ5 26-608 limits assumed): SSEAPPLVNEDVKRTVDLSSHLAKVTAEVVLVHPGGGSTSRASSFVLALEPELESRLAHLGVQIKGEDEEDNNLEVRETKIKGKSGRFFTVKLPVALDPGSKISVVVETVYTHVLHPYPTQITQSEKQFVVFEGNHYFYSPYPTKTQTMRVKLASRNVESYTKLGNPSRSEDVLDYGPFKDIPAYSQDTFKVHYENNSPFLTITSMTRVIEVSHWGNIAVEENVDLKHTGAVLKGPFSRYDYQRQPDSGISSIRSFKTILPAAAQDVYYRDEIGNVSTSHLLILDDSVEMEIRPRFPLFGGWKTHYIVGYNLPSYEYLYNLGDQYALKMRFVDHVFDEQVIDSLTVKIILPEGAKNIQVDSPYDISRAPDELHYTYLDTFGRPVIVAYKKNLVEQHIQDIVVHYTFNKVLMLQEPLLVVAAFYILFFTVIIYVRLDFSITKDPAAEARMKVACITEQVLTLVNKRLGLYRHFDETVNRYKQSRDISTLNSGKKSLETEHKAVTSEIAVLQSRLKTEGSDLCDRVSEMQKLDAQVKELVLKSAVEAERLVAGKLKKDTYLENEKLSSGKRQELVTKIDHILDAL
Sequence of Elongation factor 1-gamma (mouse) (Q9D8N0 2-437 limits assumed): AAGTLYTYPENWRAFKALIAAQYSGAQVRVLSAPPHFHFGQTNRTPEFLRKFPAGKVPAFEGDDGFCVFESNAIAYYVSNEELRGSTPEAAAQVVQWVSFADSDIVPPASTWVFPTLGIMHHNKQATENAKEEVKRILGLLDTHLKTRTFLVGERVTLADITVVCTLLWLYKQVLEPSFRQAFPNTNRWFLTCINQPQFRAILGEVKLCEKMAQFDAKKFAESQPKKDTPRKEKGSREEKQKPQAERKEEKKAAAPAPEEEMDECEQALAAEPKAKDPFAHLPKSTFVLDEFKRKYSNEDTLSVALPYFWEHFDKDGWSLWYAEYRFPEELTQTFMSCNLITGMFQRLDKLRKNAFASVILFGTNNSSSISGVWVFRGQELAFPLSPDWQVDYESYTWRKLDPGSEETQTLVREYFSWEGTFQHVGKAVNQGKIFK
Sequence of Clusterin (mouse) (Q06890 22-448 limits assumed): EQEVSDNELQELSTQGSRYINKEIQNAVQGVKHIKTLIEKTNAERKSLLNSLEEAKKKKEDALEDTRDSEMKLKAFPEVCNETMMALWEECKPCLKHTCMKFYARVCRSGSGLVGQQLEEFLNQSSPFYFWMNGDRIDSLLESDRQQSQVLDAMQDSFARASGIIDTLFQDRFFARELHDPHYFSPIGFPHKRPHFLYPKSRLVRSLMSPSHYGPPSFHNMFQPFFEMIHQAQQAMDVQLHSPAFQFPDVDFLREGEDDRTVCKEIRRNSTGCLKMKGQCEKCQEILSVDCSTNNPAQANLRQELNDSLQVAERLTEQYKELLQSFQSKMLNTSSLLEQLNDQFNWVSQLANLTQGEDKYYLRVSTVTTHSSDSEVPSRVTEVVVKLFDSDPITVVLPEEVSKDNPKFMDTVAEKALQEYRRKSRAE
Sequence of Probable ATP-dependent RNA helicase DDX17 (mouse) (Q501J6 whole entry, canonical isoform): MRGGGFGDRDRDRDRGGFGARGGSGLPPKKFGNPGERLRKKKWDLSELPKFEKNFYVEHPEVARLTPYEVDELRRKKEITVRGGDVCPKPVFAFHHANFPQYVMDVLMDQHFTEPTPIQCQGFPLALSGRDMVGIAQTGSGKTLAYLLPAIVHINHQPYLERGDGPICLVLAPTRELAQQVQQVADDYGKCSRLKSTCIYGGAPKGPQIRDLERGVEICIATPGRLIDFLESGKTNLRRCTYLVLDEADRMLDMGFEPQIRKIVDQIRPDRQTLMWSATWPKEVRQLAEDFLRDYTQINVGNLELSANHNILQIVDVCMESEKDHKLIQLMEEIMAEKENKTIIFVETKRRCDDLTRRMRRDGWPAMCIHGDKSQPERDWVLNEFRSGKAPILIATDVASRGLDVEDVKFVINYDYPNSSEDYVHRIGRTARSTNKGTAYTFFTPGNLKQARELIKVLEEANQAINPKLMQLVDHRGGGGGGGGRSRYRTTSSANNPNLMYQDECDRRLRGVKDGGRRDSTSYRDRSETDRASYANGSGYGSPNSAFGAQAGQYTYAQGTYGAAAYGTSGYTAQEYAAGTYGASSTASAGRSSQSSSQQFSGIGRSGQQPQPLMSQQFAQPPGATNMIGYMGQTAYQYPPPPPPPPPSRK

fluorescently-conjugated isotype antibody
MFI [1]: 669

human IgG Fc-conjugated Dectin-1 fusion protein (murine Dectin-1 IgG Fc; fc-mdec1a, InvivoGen) (from UniProt Q6QLQ4 69-244) (Fc fusion)
# PSM (IP1) (peptide spectral matches) [2]: 4 | # PSM (IP2) (peptide spectral matches) [2]: 10 | # PSM (IP1) (peptide spectral matches) [3]: 7 | # PSM (IP2) (peptide spectral matches) [3]: 14 | # PSM (IP1) (peptide spectral matches) [4]: 7 | # PSM (IP2) (peptide spectral matches) [4]: 36 | # PSM (IP1) (peptide spectral matches) [5]: 6 | # PSM (IP2) (peptide spectral matches) [5]: 23 | # PSM (IP1) (peptide spectral matches) (Endoplasmin (mouse)): 30 | # PSM (IP2) (peptide spectral matches) (Endoplasmin (mouse)): 8 | # PSM (IP1) (peptide spectral matches) (Clusterin (mouse)): 8 | # PSM (IP2) (peptide spectral matches) (Clusterin (mouse)): 9 | # PSM (IP1) (peptide spectral matches) [6]: 13 | # PSM (IP2) (peptide spectral matches) [6]: 92 | # PSM (IP1) (peptide spectral matches) [7]: 23 | # PSM (IP2) (peptide spectral matches) [7]: 48 | # PSM (IP1) (peptide spectral matches) [8]: 11 | # PSM (IP2) (peptide spectral matches) [8]: 11 | # PSM (IP1) (peptide spectral matches) [9]: 13 | # PSM (IP2) (peptide spectral matches) [9]: 14 | # PSM (IP1) (peptide spectral matches) (Peroxiredoxin-1 (mouse)): 7 | # PSM (IP2) (peptide spectral matches) (Peroxiredoxin-1 (mouse)): 16 | # PSM (IP1) (peptide spectral matches) [10]: 8 | # PSM (IP2) (peptide spectral matches) [10]: 8 | # PSM (IP1) (peptide spectral matches) (Eef2 protein (mouse)): 23 | # PSM (IP2) (peptide spectral matches) (Eef2 protein (mouse)): 31 | # PSM (IP1) (peptide spectral matches) (Prohibitin (mouse)): 5 | # PSM (IP2) (peptide spectral matches) (Prohibitin (mouse)): 6 | # PSM (IP1) (peptide spectral matches) [11]: 6 | # PSM (IP2) (peptide spectral matches) [11]: 19
